For orientation: IC50 means the concentration that gives 50% inhibition.

This passage reports IC50 results from patent US20100279930A1 (published 2010).

Read-outs that look alike come from different tables or passages of the source.

Test [1] concerns the target T1, human Y4 receptor (human, UniProt P50391 1-375). Description: 125I-PP displacement.
Test [2] deals with T1, human Y4 receptor. The experiment in a line: 125I-PP displacement. The source holds these as a separate data set.

T1 sequence (P50391 whole entry): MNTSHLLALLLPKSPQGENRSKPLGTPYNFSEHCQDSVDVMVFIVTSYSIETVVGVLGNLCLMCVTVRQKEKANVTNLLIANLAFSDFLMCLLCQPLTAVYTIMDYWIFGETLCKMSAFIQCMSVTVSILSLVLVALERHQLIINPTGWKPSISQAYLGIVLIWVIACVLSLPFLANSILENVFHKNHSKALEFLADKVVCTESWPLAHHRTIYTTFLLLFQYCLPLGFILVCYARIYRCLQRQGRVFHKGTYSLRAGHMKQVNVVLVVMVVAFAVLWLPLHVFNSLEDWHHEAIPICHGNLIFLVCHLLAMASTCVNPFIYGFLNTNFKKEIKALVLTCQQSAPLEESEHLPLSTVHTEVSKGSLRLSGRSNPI

PLEPHYPGDNATPEQMARYAAELRRYINKLTRPRY [4057900] returned an IC50 in the test with human Y4 receptor [1] of 0.09 nM. That is a picomolar value.
Take PLEPHYPGDNATPEQLAKYAADLRRYINKLTRPRY [4057893]: in the test with human Y4 receptor [1], the concentration for half-maximal inhibition (IC50) amounted to 0.144 nM.
Still for that read-out and setting: the figure for PLEPHYPGDDATPQQMARYAAELRRYINKLTRPRY [4057898] is 0.063 nM; for PAPLEPSYPGDNATPEQLAHYYSELRRYINKLTRPRY [4057781] it is 0.132 nM; for AAPLEPSYPGDNATPEQLAHYYSELRRYINKLTRPRY [4057779] it is 0.071 nM.
Take AAPLEPTYPGDNATPEQMAHYYSELRRYINKLTRPRY [4057782]: in the test with human Y4 receptor [1], the IC50 stood at 0.078 nM. The IC50 values of the last two molecules are within 1.5-fold of each other.
AAPLEPTYPGDNATPEQLAHYYSELRRYINKLTRPRY [4057784] showed an IC50 in the test with human Y4 receptor [1] of 0.102 nM.
In the test with human Y4 receptor [1], PAPLEPHYPGDDATPQQLAHYYSELRRYINKLTRPRY [4057789] yielded an IC50 of 0.164 nM.
In the test with human Y4 receptor [1], PAPLEPTYPGDNATPEQMAHYYSELRRYINKLTRPRY [4057783] registered a half-maximal inhibitory concentration (IC50) of 0.154 nM. This IC50 and that of the molecule before are within 1.5-fold of each other.
APLEPHYPGDNATPEQMAKYAAELRRYINKLTRPRY [4057764]: in the test with human Y4 receptor [1], the concentration for half-maximal inhibition (IC50) amounted to 0.094 nM.
Molecule APLEPVYPGDDATPEQMAQYAAELRRYINMLTRPRY [4055195] returned an IC50 with human Y4 receptor [2] of 0.86 nM.
As to APLEPVYPGDNATPEQMAEYAADLRRYINMLTRPRY [4055524], the half-maximal inhibitory concentration (IC50) in the test with human Y4 receptor [2] stood at 0.3 nM. Against the preceding molecule, the IC50 is about 2.9-fold lower.
The same measure, in the same setting: then APLEPVYPGDNATPEQMAHYAADLRRYINMLTRPRY [4055525], with 0.11 nM.
In turn, APLEPHYPGDNATPEQMAKYAAALRRYINKLTRPRY [4057754] came in with an IC50 in the test with human Y4 receptor [1] of 0.156 nM. That is a sub-nanomolar value.
Same read-out and setting: then APLEPHYPGDNATPEQMAKYAADLRRYINKLTRPRF [4057745], with 0.086 nM; and APLEPHYPGDDATPQQMARYAAELRRYINLLTRPRY [4058056], with 0.1 nM.
As for PAPLEPTYPGDDATPQQMAKYAAALRRYINILTRPRY [7268], in the test with human Y4 receptor [2], the IC50 amounted to 0.127 nM.
PAPLEPVYPGDNATPEELARYAAELRRYINKLTRPRY [4057769] gave an IC50 in the test with human Y4 receptor [1] of 0.117 nM.
PAPLEPVYPGDNASPEQMARYAAELRRYINKLTRPRY [4057770] registered an IC50 with human Y4 receptor [1] of 0.081 nM.
With GAPLEPHYPGDDATPQQMARYAAELRRYINKLTRPRY [4057899], the IC50 with human Y4 receptor [1] was 0.064 nM.
Same read-out and setting: then YAPLEPHYPGDDATPQQMARYAAELRRYINKLTRPRY [4058054], with 0.137 nM.
Consider AAPLEPTYPGDDATPQQMARYAAELRRYINFLTRPRY [7274], for which, in the test with human Y4 receptor [2], the 50% inhibitory concentration (IC50) came out at 0.107 nM.
PAPLEPTYPGDDATPQQMARYAAELRRYINILTRPRY [7271] yielded a concentration for half-maximal inhibition (IC50) with human Y4 receptor [2] of 0.22 nM.
The molecule YAPLEPEYPGDDATPQQMARYAAELRRYINKLTRPRY [4058053] returned an IC50 with human Y4 receptor [1] of 0.042 nM.
PAPLEPTYPGDDATPQQMARYAAELRRYINFLTRPRY [7259] gave a half-maximal inhibitory concentration (IC50) with human Y4 receptor [2] of 0.075 nM.
Take AAPLEPHYPGDNATPEQMAKYAAELRRYINKLTRPRY [4057765]: the 50% inhibitory concentration (IC50) with human Y4 receptor [1] was 0.075 nM.
As for PAPLEPTYPGDDATPQQMAKYAAELRRYINILTRPRY [7270], in the test with human Y4 receptor [2], the IC50 came to 0.171 nM.
For HAPLEPHYPGDNATPEQMARYAAELRRYINKLTRPRY [4057902], in the test with human Y4 receptor [1], the IC50 came out at 0.064 nM.
PAPLEPHYPGDDATPQQMARYAAELRRYINKLTRPRY [4057897] displayed a concentration for half-maximal inhibition (IC50) with human Y4 receptor [1] of 0.07 nM.
PAPLEPTYPGDDATPQQMARYAAALRRYINILTRPRY [7269] displayed an IC50 with human Y4 receptor [2] of 0.187 nM.
On to PAPLEPSYPGDDATPQQMAHYYAELRRYINKLTRPRY [4057774], for which the IC50 with human Y4 receptor [1] amounted to 0.227 nM. That is a sub-nanomolar value.
PAPLEPHYPGDDATPQQMARYAAELRRYINLLTRPRY [4058057] displayed an IC50 in the test with human Y4 receptor [1] of 0.111 nM.
In turn, APLEPVYPGDDATPEQMAEYAADLRRYINMLTRPRY [4055406] gave an IC50 in the test with human Y4 receptor [2] of 0.17 nM.
On the same count and under the same terms, then KPLEPVYPGDNATPEQMAQYAADLRRYINMLTRPRY [4055292], with 0.4 nM.
For AAPLEPHYPGDNATPEQMAKYAAALRRYINKLTRPRY [4057755], the IC50 with human Y4 receptor [1] is 0.145 nM. This counts as sub-nanomolar.
Molecule PAPLEPHYPGDNATPEQLAKYAADLRRYINKLTRPRY [4057753] had an IC50 with human Y4 receptor [1] of 0.07 nM. This IC50 lies about 2.1-fold lower than the previous one.
The molecule HAPLEPHYPGDNATPEQMAKYAADLRRYINKLTRPRY [4057891] displayed an IC50 with human Y4 receptor [1] of 0.146 nM.
In the test with human Y4 receptor [2], PAPLEPVYPGDNATPEQMARYAAALRRYINKLTRPRY [7243] displayed a 50% inhibitory concentration (IC50) of 0.058 nM.
In the test with human Y4 receptor [1], AAPLEPHYPGDNATPEQMAKYYSELRRYINKLTRPRY [4057762] registered an IC50 of 0.167 nM. In other words, the sub-nanomolar range.
In turn, PAPLEPKYPGDNATPEQMARYAAALRRYINMLTRPRY [7248] had an IC50 with human Y4 receptor [2] of 0.131 nM.
HAPLEPVYPGDNATPEQMAKYAADLRRYINKLTRPRY [4057879] registered an IC50 with human Y4 receptor [1] of 0.134 nM.
Regarding PAPLEPTYPGDNATPEQMAKYAAELRRYINFLTRPRY [7253], in the test with human Y4 receptor [2], the IC50 amounted to 0.095 nM. That is a picomolar value.
Turning to AAPLEPHYPGDNATPEQMAKYYSALRRYINKLTRPRY [4057758], the IC50 with human Y4 receptor [1] is 0.19 nM.
For PAPLEPHYPGDNATPEQMAKYAADLRRYINKLTRPRF [4057747], in the test with human Y4 receptor [1], the IC50 was 0.066 nM.
On to PAPLEPHYPGDNATPEQMAKYYSELRRYINKLTRPRY [4057763], for which the half-maximal inhibitory concentration (IC50) with human Y4 receptor [1] was found to be 0.174 nM.
PAPLEPTYPGDNATPEQMAKYAAELRRYINMLTRPRY [7251] displayed an IC50 in the test with human Y4 receptor [2] of 0.096 nM. That is a picomolar value.
In turn, PAPLEPVYPGDNATPEQIARYAAALRRYINKLTRPRY [7244] yielded an IC50 in the test with human Y4 receptor [2] of 0.106 nM. The IC50 values of the last two molecules are within 1.5-fold of each other.
As to PAPLEPSYPGDNATPEQMAKYAAALRRYINLLTRPRY [4058052], in the test with human Y4 receptor [1], the half-inhibitory concentration (IC50) was 0.085 nM.
With AAPLEPHYPGDNATPEQMAKYAADLRRYINKLTRPRF [4057746], the IC50 with human Y4 receptor [1] was determined as 0.072 nM.
Still for that read-out and setting: the figure for AAPLEPHYPGDNATPEQLAKYAADLRRYINKLTRPRY [4057752] is 0.071 nM.
For PAPLEPTYPGDNATPEQMARYAAALRRYINMLTRPRY [7249], the IC50 with human Y4 receptor [2] stood at 0.089 nM. This counts as picomolar.
As to APLEPVYPGDNATPEQMAQYAADLNLRYINMLTRPRY [4054990], the IC50 with human Y4 receptor [2] was determined as 0.67 nM. This IC50 is about 7.5-fold higher than that of the molecule before.
With APLEPVYPGDDATPQQMAQYYASLRHYLNLVTRPRY [4055247], the IC50 with human Y4 receptor [2] came out at 0.3 nM. This IC50 is about 2.2-fold lower than that of the molecule before.
For APLEPVYPGDNATPEQMAQYYASLRHYLNLVTRPRY [4055245], the IC50 with human Y4 receptor [2] is 0.5 nM.
APLEPVYPGDNATPEQLAQYAADLRKYINLLTRPRY [4055549] had an IC50 in the test with human Y4 receptor [2] of 0.2 nM. Against the preceding molecule, the IC50 is about 2.5-fold lower.
